{"source": "patent US20100183614A1", "about": "(COVALENT BIOSCIENCE, published 2010)", "binders": {"B1": {"name": "scFv JL427 (scFv)", "scFv": "QSVLTQPPSVSGAPGQRVTISCSGSSSNFGLNYVYWYQHFPGTAPKLLIYRNDQRPLGVPARFSGSKSGTSASLAISGLRSEDEADYYCQSYDNSLSGWVFGGGTQLTVLGSSGGGGSGGGGSGGSALQVQLQQSGGGLVQPGRSLRLSCAASGFTFSSYGMHWVRQAPGKGLEWVSYIGRSGSHTNYADSVKGRFTISRDNSKNTLYLQINSLRAEDTAVYYCARGLPNYGMDIWGQGTTVTVSSGSASAPTLFPAAAHHHHHHGAAEQKLISEEDLNGAA"}}, "biological_target": "gp120 of HIV strain 97ZA009 (clade C, R5) (HIV-1 strain 97ZA009)", "experiment": "cell-based or functional assay", "data": [{"binder": "B1", "values": [{"measurement": "HIV neutralization IC50, ng/mL (97ZA009, PBMC)", "result": 300, "unit": "ng/mL"}]}]}
